Assay results from the supplement of paper PMC10201428.
± gives the standard deviation of the averaged measurements.

What follows are sequences tested on VchCAST RNA-guided transposition machinery (E. coli BL21(DE3) host, lacZ target) (assay: relative integration efficiency (T-LR orientation) vs wild-type transposon end (log2 (normalized fold change)); transposon end mutated: right end (5 bp flank + 75 bp right end); higher = more efficient transposition).
How it was run: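 Relative integration efficiency is a fold change of output over input barcode abundance, normalised to reference barcodes and log-transformed. Input plasmids and genomic integration junctions were PCR-amplified and Illumina-sequenced from E. coli BL21(DE3) co-transformed with a T7-driven effector plasmid and pUC57 donor pools of 1549 left-end or 1849 right-end transposon variants. Plating was done with 0.1 mM IPTG at 37°C for 18 h, with two biological output replicates and four reference barcodes.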

Going from “ACATTTGTTGATACACCCATAAATTGATAATTACACCCATAAATTGATAATTATCAGTGGGTATTTAACTATAACGCTCTGATCATAGTCAGACCAACATTGCTACGACCCGTATTCGCACCGACAC” to “ACATTTGTTCATACAACCATAAAATGATAATTCACCCATCAATTGATAATTATCACACCCCAATTTAACTATAACGCTCTGATCATAGTCAGACCAACATTGCTACGACCCGTATTCGCACCGACAC”, the “relative integration efficiency (log2)” value falls from 2.54 ± 0.063 to -2.51 ± 0.15.

First: ACATTTGTTGATACAACCATAAAAGGATCATTACACCCATAAATTGATAATTATCCCACCCCATTTAACTATAACGCTCTGATCATAGTCAGACCAACATTGCTACGACCCGTATTCGCACCGACAC
Second: ACATTTGTTGATACAACCATAAAAGGATAATTACCCCCATCAATTGATAATTATCCCACCCCATTTAACTATAACGCTCTGATCATAGTCAGACCAACATTGCTACGACCCGTATTCGCACCGACAC
The “relative integration efficiency (log2)” value of the first is higher: 1.38 ± 0.021 for the first, -0.233 ± 0.32 for the second.

Compared with “ACATTTGTTGATACAACCATAAAATGATAATTACACCCATAAATTGATAATTATCACACCCATAAATTGATATTGCCTCTTCATGGTCTAAACTTCAGTAAGTTTACGACATTTTCAGCACCGACAC”, “ACATTTGTTGATACACCCATAAATTGATATTGCCACCCATAAATTGATATTGCTCACACCCATAAATTGATAATTACTCTGATCATAGTCAGACCAACATTGCTACGACCCGTATTCGCACCGACAC” is lower in “relative integration efficiency (log2)” value: 1.44 ± 0.19 for the first, 0.226 ± 0.19 for the second.

First: ACATTTGTTGATACAACCATAAAAGGATCATTACCCCCATAAATTGATAATTATCCCACCCCATTTAACTATAACGCTCTGATCATAGTCAGACCAACATTGCTACGACCCGTATTCGCACCGACAC
Second: ACATTTGTTGATACAACCATAAAATGATAATTAATAATTATTCACCCATAAATTGATAATTATCAACAAACGCCCGGTCGCGGTACTCTGATCATAGTCAGACCAACATTGCTACGACCCGTATTCG
The “relative integration efficiency (log2)” value of the first is higher: 0.775 ± 0.15 for the first, 0.337 ± 0.11 for the second.

“ACATTTGTTGATAAAACCATACGTTGATTTTACCACCCATAAATTGATAATTATCACACCCATAAATTGATATTGCCTCTGATCATAGTCAGACCAACATTGCTACGACCCGTATTCGCACCGACAC” and “ACATTTGTTGATACAACCATAAAATGATAATTAATAATTATTTCACCCATAAATTGATAATTATCACACCCATAAATTGATATTGCCTCTGATCATAGTCAGACCAACATTGCTACGACCCGTATTC” are within error of each other in “relative integration efficiency (log2)” value: -2.98 ± 0.21 for the first, -2.62 ± 1.1 for the second.

Compared with “ACATTTGTTGATACAACCATAACCGTATAATTACACCCATAAATTGATAATTATCACACCCATAAATTGATATTGCCTCTGATCATAGTCAGACCAACATTGCTACGACCCGTATTCGCACCGACAC”, “ACATTTGTTGATACAACCATCCCCTGATAATTACACCCATCCCGTGATAATTATCACACCCATCCCGTGATATTGCCTCTGATCATAGTCAGACCAACATTGCTACGACCCGTATTCGCACCGACAC” is lower in “relative integration efficiency (log2)” value: -1.78 ± 0.49 for the first, -3.86 ± 0.83 for the second.

First: ACATTTGTTGATACACCCATAAATTGATAATTACAACCATATATTGATATCTCTCACAACCATATATTGATATCTCCTCTGATCATAGTCAGACCAACATTGCTACGACCCGTATTCGCACCGACAC
Second: ACATTTGTTGATACAACCATAAACTGATAATTACACCCATAAAGTGATAATTATCACACCCATAAAGTGATATTGCCTCTGATCATAGTCAGACCAACATTGCTACGACCCGTATTCGCACCGACAC
The “relative integration efficiency (log2)” value of the first is lower: 0.0245 ± 0.11 for the first, 0.264 ± 0.12 for the second.

Going from “ACATTTGTTGATACCACCATAAAATGATAATTACACCCATACATTGATAATTATCACACCCAATTTAACTATAACGCTCTGATCATAGTCAGACCAACATTGCTACGACCCGTATTCGCACCGACAC” to “ACATTTGTTGATAACCACATAAAATGATAATTACACCCATAAATTGATAATTATCACACCCATAAATTGATATTGCCTCTGATCATAGTCAGACCAACATTGCTACGACCCGTATTCGCACCGACAC”, the “relative integration efficiency (log2)” value falls from 0.947 ± 0.23 to -1.28 ± 0.093.

Compared with “ACATTGGTCGATACAACCATAAAATGATAATTACACCCATAAATTCATCATTATCACACCCAATTTAACTATAACGCTCTGATCATAGTCAGACCAACATTGCTACGACCCGTATTCGCACCGACAC”, “ACATTTGTTGATACAACCATAAAGTGATATTTACAACCATAAAATGATAATTATCACAACCATAAGTTGATATTTTCTCTGATCATAGTCAGACCAACATTGCTACGACCCGTATTCGCACCGACAC” is higher in “relative integration efficiency (log2)” value: -5.19 ± 1.2 for the first, -0.0726 ± 0.055 for the second.

Compared with “ACATTTGTTGATACAACCATAAAATGATAATTACACCCATAAATTGATAATTATCACACCGTATAATTGATATTGCCTCTGATCATAGTCAGACCAACATTGCTACGACCCGTATTCGCACCGACAC”, “ACATTTGTTCATACAACCATAAAATGATAATTACACCCATAAATTCATAATTATCACCCCCAATTTAACTATAACGCTCTGATCATAGTCAGACCAACATTGCTACGACCCGTATTCGCACCGACAC” is lower in “relative integration efficiency (log2)” value: 2.25 ± 0.06 for the first, -0.0689 ± 0.64 for the second.

First: ACATTTGTTGATACACCCATAAATTGATATTGCCAACCATAAAATGATAATTATCAGTGGGTATTTAACTATAACGCTCTGATCATAGTCAGACCAACATTGCTACGACCCGTATTCGCACCGACAC
Second: ACATTTGTGGATACAACCATAAAATGATAATTACACCCATAAATTTATAATTATCACACCCAATTTAACTATAACGCTCTGATCATAGTCAGACCAACATTGCTACGACCCGTATTCGCACCGACAC
The “relative integration efficiency (log2)” value of the first is higher: 2.28 ± 0.096 for the first, 1.8 ± 0.36 for the second.

Going from “ACATTTGTTGATACAACCATAAAATGATAATTACACCCATAAATTGATAATATTCACACCCATAAATTGATATTGCCTCTGATCATAGTCAGACCAACATTGCTACGACCCGTATTCGCACCGACAC” to “ACATTTGTTGATACAACCATCAAATGGTAATTACACCCATACATTGATAATTATCACACCCAATTTAACTATAACGCTCTGATCATAGTCAGACCAACATTGCTACGACCCGTATTCGCACCGACAC”, the “relative integration efficiency (log2)” value falls from -0.107 ± 0.095 to -1.54 ± 0.61.

Compared with “ACATTTGTTGATACAACCATAAAATGATAATTACACCCATAAATACATAATTATCACACCCATAAATTGATATTGCCTCTGATCATAGTCAGACCAACATTGCTACGACCCGTATTCGCACCGACAC”, “ACATTTGTTGATACAACCATAAAATGATAATTACTCTGATCATAGTCAGCACCCATAAATTGATAATTATCACACCCATAAATTGATATTGCACCAACATTGCTACGACCCGTATTCGCACCGACAC” is higher in “relative integration efficiency (log2)” value: -0.737 ± 0.026 for the first, -0.456 ± 0.19 for the second.

“ACATTTGTTGATACAACCATAAAATGATAATTACACCCATAAATTGATAATTATCACACCCATAAATTGATATTGCCTCTGATAACTTGGTATAGCATACATTATACGAACGGTATCGCACCGACAC” and “ACATTTGTTGATACAACCATATATTGATATCTCCAACCATAAGTTGATATTTTTCACACCCATAAATTGATAATTACTCTGATCATAGTCAGACCAACATTGCTACGACCCGTATTCGCACCGACAC” are within error of each other in “relative integration efficiency (log2)” value: 0.663 ± 0.24 for the first, 0.109 ± 0.44 for the second.

Going from “ACATTTGTTGATACACCCATAAATTGATATTGCCAACCATATATTGATATCTCTCACACCCATAAATTGATAATTACTCTGATCATAGTCAGACCAACATTGCTACGACCCGTATTCGCACCGACAC” to “ACATTGGTTCATACAACCATAAAATGATAATTACACCCATAAATTCATCATTATCACACCCAATTTAACTATAACGCTCTGATCATAGTCAGACCAACATTGCTACGACCCGTATTCGCACCGACAC”, the “relative integration efficiency (log2)” value falls from 0.0732 ± 0.11 to -6.18 ± 1.9.

First: ACATTTGTTGATACAACCATAAAATGATAATTAATAATTATTTATAATCAGCAACTTAACACCCATAAATTGATAATTATCAACAAACGCCCGGTCGCGGTACTCTGATCATAGTCAGACCAACATT
Second: ACATTTGTTGATACAACCCTAAAATGATAATTACACCCATAAATGGATCATTATCACACCCAATTTAACTATAACGCTCTGATCATAGTCAGACCAACATTGCTACGACCCGTATTCGCACCGACAC
The “relative integration efficiency (log2)” value of the first is higher: -0.0617 ± 0.066 for the first, -1.52 ± 0.39 for the second.
